Experimental data as given in paper PMC8554075 (Immunity, 2021).
Positions count from the first letter of the chain named.

B1: AB-3623, expressed as human IgG1 (antibody, V domains shown)
VH: QVQLQESGPGLVKPSETLSLTCAVSGGSISSYYWNWIRQPPGTGLEWIGYIYYSGRTNYNPSLKSRVTISVDTSKNQFSLKLSSVTAADTAVYYCAREMRRGYSGYDDWDLYAFDIWGQGTMVTVSS
VL: DIQLTQSPSFLSTSIGDRVTITCRASQGISSYLAWYQQKPGKAPNLLIYAASTLQSGVPSRFSGSGSGTEFTLTISSLQPEDFATYYCQQLNSYPHTFGQGTKLEIK
B2: AB-3467, expressed as human IgG1 (antibody, V domains shown)
VH: B1 VH with A23T, Y33H, T43K, R56N, T68S, V71T, A96V, D108Y
VL: B1 VL with T13A, I15V
B3: AB-4873, expressed as human IgG1 (antibody, V domains shown)
VH: QVQLVQSGAEVKKPGASVKVSCKASGYTFTSYYMHWVRQAPGQGLEWMGIINPSAGTTNYAQKFQGRVTMTRDTSTSTVYMELSSLRPEDTAVYYCARENYYGWGSYPFDYWGQGTLVTVSS
VL: B1 VL with I2V, T13A, I15V, N45K, S65T, H96Y
B4: AB-4689, expressed as human IgG1 (antibody, V domains shown)
VH: QVQLVQSGAEVKKPGASVKVSCKASGYTFSSYGISWVRQAPGQGLEWMGWISAYNGNTYYAQKLQGRVTMTTDTSTSTAYMELRSLRSDDTAVYYCAREFGRLIVHFDYWGQGTLVTVSS
VL: EIVLTQSPDFQSVTPKEKVTITCRASQSIGSSLSWYQQKPDQSPKLLIKCASQSISGVPSRFSGSGSGTDFTLTINSLEAEDAAAYYCHQSSSLPYTFGQGTKLEIK
B5: AB-1987, expressed as human IgG1 (antibody, V domains shown)
VH: QVQLVESGGGVVQPGRSLRLSCAASGFTFSSYGMHWVRQAPGKGLEWAAVIWYDGSNKYYADSVKGRFTISRDNSKNTLYLQMNSLRAEDTAVYYCARESSGGFDYWGQGTLVTVSS
VL: NIQMTQSPSAMSASVGDRVTITCRARQGISNFLAWFQQKPGKVPKHLVYAASSLRSGVPSRFSGSGSGTEFTLTISSLQPEDFATYYCLQHNNYPYTFGQGTKLEIK
B6: AB-2126, expressed as human IgG1 (antibody, V domains shown)
VH: B5 VH with M34I, A48V, S100T, S101L, G102D, F104M, Y106V, L112T
VL: B5 VL with F32Y, V48I, R55L, S76R, N93S
B7: AB-2445, expressed as human IgG1 (antibody, V domains shown)
VH: QVQLVESGGGVVQPGRSLRLSCAASGFTFSSYGMHWVRQAPGKGLEWVAVIWYDGSNKYYADSVKGRFTISRDNSKNTLYLQMNSLRAEDTAVYYCARDDYYGSGSYDYYGMDVWGQGTTVTVSS
VL: DIQMTQSPSSLSASVGDRITITCRASQGIRNDLDWYQQKPGKAPKRLIYAASSLQSGVPSRFSGSGSGTEFTLTISSLQPEDFATYYCLQHNSYPPYTFGQGTKLEIK
B8: AB-3545 (antibody, V domains shown)
VH: B1 VH with S31N, Y33H, T43K, S62T, T68N
VL: B1 VL with S14Y, I15V, S31T, N45K, S52F
B9: 3573 (antibody, V domains shown)
VH: B1 VH with Q3L, N35S, T43K, P61S
VL: B1 VL with I15V, N45K, E70D
B10: 3517 (antibody, V domains shown)
VH: B1 VH with A23T, Y33H, T43K, R56S, T68S, D108Y
VL: B1 VL with T13A, I15V, G16R, G28D, N45K, S93N
B11: AB-3492 (antibody, V domains shown)
VH: B1 VH with T43K
VL: B1 VL with I15V, N45K
B12: AB-3571 (antibody, V domains shown)
VH: B1 VH with Y33H, T43K, S62T, T68N, D108Y
VL: B1 VL with I15V, G28D, S31T, N45K, A84V
B13: 3521 (antibody, V domains shown)
VH: B1 VH with A23T, Y33H, N35S, T43K, R56S, N58I, T68S, K75Q, R100P, D108Y
VL: B1 VL with T13A, I15V, G16R, N45K, S93N
B14: 3577 (antibody, V domains shown)
VH: B1 VH with A23T, Y33H, T43K, R56N, T68S, V71A, D108Y
VL: B1 VL with T13A, I15V, N45K, A50T
B15: 3881 (antibody, V domains shown)
VH: B1 VH with E6G, A23T, N35T, T43K, R56I, N58T, V67I, S83R, D108Y, A113P
VL: B1 VL with T13A, I15V, N45K, A50S, R61K
B16: 3476 (antibody, V domains shown)
VH: B1 VH with N35S, T43K
VL: B1 VL
B17: 3513 (antibody, V domains shown)
VH: QVQLQESGPGLVKPSETLSLTCTVTGGSINNYFWSWIRQPPGKGLEWIGNIYYSGNTIYNPSLKSRVTLSIDTSKNQFSLRLTSVTAADTAVYYCAREMRRGYSGYDYWDLYAFDVWGQGTMVTVSS
VL: B1 VL with T13A, I15V, G16Q, G28D, N45K
B18: 3581 (antibody, V domains shown)
VH: B1 VH with A23T, S31T, N35S, I37T, T43K, Y50N, R56S, N58I, S83T, D108Y
VL: B1 VL with Q6P, T13A, I15V, K39T, N45K
B19: 3475 (antibody, V domains shown)
VH: B1 VH with A23T, G27D, Y33H, T43K, R56S, D72H, K81R, R97K, D108Y
VL: B1 VL with T13A, I15V, I21V, N45K
B20: 3490 (antibody, V domains shown)
VH: B1 VH with N35S, T43K
VL: DIQLTQSPSFLSTSVGDRVTITCRASQGISSYLAWYQQKPGKAPKLLIYAASTLQSGVPSRFSGSGSGTEFTLTISSLQPEDFATYYCQQFNSYPHTFGQGTKLEI
B21: 3645 (antibody, V domains shown)
VH: B1 VH with N35S, T43K, T57I
VL: B1 VL with I15V, N45K
B22: 3606 (antibody, V domains shown)
VH: B1 VH with N35S, T43K, P61S
VL: B1 VL with I15V, N45K, E70D
B23: 3636 (antibody, V domains shown)
VH: B1 VH with A23T, Y33H, T43K, R56S, T68S, D108Y
VL: B1 VL with T13A, I15V, G16R, N45K, S93N

Biological target: T1, SARS-CoV-2 receptor-binding domain (SARS-CoV-2, UniProt P0DTC2)
Assay: BLI

Binder	Kd
B1	2.3 nM
B2	4.1 nM
B3	4.1 nM
B4	0.24 nM

Biological target: T1, SARS-CoV-2 receptor-binding domain
Assay: cell-based or functional assay

Binder	neutralization of live CoV2 virus, Vero E6 cells (blocks RBD-ACE2)
B2	0.179 µg/mL
B5	0.054 µg/mL
B6	0.106 µg/mL
B7	0.37 µg/mL

Biological target: SARS-CoV-1 receptor-binding domain (SARS-CoV (SARS-CoV-1), isolate not …, UniProt P59594)
Assay: not given

Binder	binding result
B8	binds
B9	binds
B10	binds
B11	binds
B12	binds
B13	binds
B14	binds
B15	binds
B16	binds
B17	binds
B18	binds
B19	binds
B20	binds
B21	binds
B22	binds
B23	binds

Biological target: RaTG13 receptor-binding domain (Bat coronavirus RaTG13, UniProt A0ABF7PLN6)
Assay: not given

Binder	binding result
B8	binds
B9	binds
B10	binds
B11	binds
B12	binds
B13	binds
B14	binds
B15	binds
B16	binds
B17	binds
B18	binds
B19	binds
B20	binds
B21	binds
B22	binds
B23	binds

Biological target: T1, SARS-CoV-2 receptor-binding domain
Assay: not given

Binder	binding result
B8	binds
B9	binds
B10	binds
B11	binds
B12	binds
B13	binds
B14	binds
B15	binds
B16	binds
B17	binds
B18	binds
B19	binds
B20	binds
B21	binds
B22	binds
B23	binds
